Biological target: T1, Recombinant GST-RILP wt, full length (human, UniProt Q96NA2 1-401)
T1 sequence (looked up): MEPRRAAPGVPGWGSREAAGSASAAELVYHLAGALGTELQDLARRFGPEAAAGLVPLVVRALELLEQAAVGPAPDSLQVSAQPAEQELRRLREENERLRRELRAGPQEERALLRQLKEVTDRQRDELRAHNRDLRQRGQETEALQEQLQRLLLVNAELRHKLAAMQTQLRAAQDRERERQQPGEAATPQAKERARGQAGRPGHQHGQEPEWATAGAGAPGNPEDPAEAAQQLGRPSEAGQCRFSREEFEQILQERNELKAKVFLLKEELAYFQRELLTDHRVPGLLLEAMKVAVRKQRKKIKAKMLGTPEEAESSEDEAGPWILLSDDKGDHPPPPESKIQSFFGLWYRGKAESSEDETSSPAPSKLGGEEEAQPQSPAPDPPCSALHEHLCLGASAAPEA
Experiment: pull-down

- binding result: binds
B1: Recombinant human His-tagged ATG5 (natural protein, UniProt Q9H1Y0 1-275, looked up)
chain: MTDDKDVLRDVWFGRIPTCFTLYQDEITEREAEPYYLLLPRVSYLTLVTDKVKKHFQKVMRQEDISEIWFEYEGTPLKWHYPIGLLFDLLASSSALPWNITVHFKSFPEKDLLHCPSKDAIEAHFMSCMKEADALKHKSQVINEMQKKDHKQLWMGLQNDRFDQFWAINRKLMEYPAEENGFRYIPFRIYQTTTERPFIQKLFRPVAADGQLHTLGDLLKEVCPSAIDPEDGEKKNQVMIHGIEPMLETPLQWLSEHLSYPDNFLHISIIPQPTD
